Measured values published in patent US7799901B2, “Modulators of the function of FAS receptors and other proteins” (Yeda Research and Development Co. Ltd., priority 1995, dated 2010).

Target: T1, FAS-R (Homo sapiens, UniProt P25445)
T1 construct: the FAS-IC extends-from amino acid residues 175-319 of the intact FAS-R; expressed in transfected cells; host or cells: SFY526 yeast
T1 sequence (P25445 191-335): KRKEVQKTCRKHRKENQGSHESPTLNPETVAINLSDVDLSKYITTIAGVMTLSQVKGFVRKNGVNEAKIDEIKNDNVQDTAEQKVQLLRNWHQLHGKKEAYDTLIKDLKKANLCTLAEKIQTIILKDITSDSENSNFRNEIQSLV
Assay: Two-hybrid β-galactosidase filter assay (FIG. 5), binding to FAS-R
Conditions: two hybrid test
Protocol: The yeast two-hybrid test was further applied to evaluate the specificity of binding of MACH to MORT-1, in particular, to define the region in MORT-1 to which MACH binds, as well as to determine which of the MACH ORFs interacts with MORT-1, the procedures being as set forth herein above in Examples 1 and 2. Briefly, various MORT-1 and MACH constructs were prepared for testing the interaction of the proteins encoded by the Gal4 DNA-binding domain and activation domain constructs within transfected SFY526 yeast cells as assessed by the β-galactosidase expression filter assay. The DNA-binding domain constructs were prepared in pGBT9 vectors and the activation domain constructs were prepared in pGAD-GM vectors. […] In the assay, the development of color was determined, where the greater the color development, the greater the interaction between the constructs encoded by the DNA-binding domain and activation domain; Color development was depicted by symbols, where “+++” and “+” indicate the development of a strong color within 30 and 90 min. of the assay, respectively, and “−−−” indicates the lack of development of color within 24 hrs. of the assay. […]
In FIG. 5, there is shown the results of the interaction of MORT-1 and MACH within transfected yeast cells. […] Their interaction was assessed by a β-galactosidase expression filter assay as described in Boldin et al (1995b). […]

B1: MACHβ1: MACH isoform, cDNA SEQ ID NO: 4, amino acid SEQ ID NO: 5; lacks the CED3/ICE homology region (protein)
chain: MDFSRNLYDIGEQLDSEDLASLKFLSLDYIPQRKQEPIKDALMLFQRLQEKRMLEESNLSFLKELLFRINRLDLLITYLNTRKEEMERELQTPGRAQISAYRVMLYQISEEVSRSELRSFKFLLQEEISKCKLDDDMNLLDIFIEMEKRVILGEGKLDILKRVCAQINKSLLKIINDYEEFSKERSSSLEGSPDEFSNDFGQSLPNEKQTSGILSDHQQSQFCKSTGESAQTSQH
- binding to FAS-R in transfected yeast: unable to bind
